Assay: yeast display, Sf9 membrane polyspecificity reagent, FACS + sequencing; frameworks hold sequencing errors
Procedure, shortened: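 In a synthetic yeast display library (Saccharomyces cerevisiae BJ5465), nanobody expression was induced with galactose for 36–48 hours. FACS gates were set low and high (top ~1%) using anti-HA fluorescence for expression and streptavidin fluorescence for binding of the Sf9 membrane reagent. Each polyreactivity label is drawn from the gate of origin.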

Sequence | polyreactivity (PSR sort gate)
QVQLVESGVGLVQAGGSLRLSCAASGGIFFYYAMGWSRQAPGKERELVAAISYSGGSTYYADSVKGRFTISRDNAKHTVYLQMNSVKPDDTAVNYCAAVPDYYEYSPYDYWGQGTQVTVSS | low polyreactivity
QVQLVESGVGLVQAGGSLRLSCAASGGTFVTYAMGWFSQAPGKERELVAAISATDGRTYNADSVKGRFTISRDNAKNTVYLQMNSLKPADTAVYYCAAVGPYTQSRGKYSNLFYWGQGTQVTVSS | high polyreactivity
QVQLVESGVGLVQAGGSLRLSCAASGIIFKNYTRGWDRPAPWKEWELVAAISWRGGRTYYADSVKGRFTISRDNAKNTVYLQMNSLKPEDTAVYYCAKELYVSYRGGPWVDYWGQGTQVTVSS | high polyreactivity
QVQLVESGVGLVQAGGSLRLSCAASGIIFSSYAMGWYRQAPGKERELVAAITWNGGRTYYADSVKGRFTISRDNAKNSVYLQMNSLKPEDTAVYYCAALQGRSSARQDSYGYWGQGTQVTVSS | high polyreactivity
QVQLVESGVGLVQAGGSLRLSCAASGIIFTSNTMGWYRPAPGKEREFVASINWNGSSTYADSVKGRFTISRDNAKNTVYLQMNSLKPEDTAVYYCNADYKRNSVQFSLYDYWGQGTQVTVSS | low polyreactivity
QVQLVESGVGLVQAGGSLRLSCAASGIIFVTYTMAWYRQAHGKEREFVAAITRRGSRTYYADSVKGRFTISRDNAKNTVYLQMNSPKPEDTAVYYCNAVPRWSYVDEDSWGQGTQVTVSS | high polyreactivity
QVQLVESGVGLVQAGGSLRLSCAASGIIFYPNAMGWYRQAPGKERELVAAISWRSGSTYYADSVKGRFTISRDNAKKTVYLQMNSLKPEDTAVYYCNADFWYSYGYDYWGQGTQVTVSS | low polyreactivity
QVQLVESGVGLVQAGGSLRLSCAASGITFYGYAMGWYRQAPGKDRELVAAINWGGTGTYYADSVKGRFTISRDNAKNTVYFQMNSLKPEDTAVYYCNKAGDPIADPTAGKRQFDYWGQGTQVTVSS | low polyreactivity
QVQLVESGVGLVQAGGSLRLSCAASGITSRYYAMGCYRQAPGKERELVAAISGNGGRTYYADSVKGRFTISRDIAKNSVYFQMNSMKPEDTAVYYCAARAHKTRHNYWGQGTQVTVSS | high polyreactivity
QVQLVESGVGLVQAGGSLRLSCAASGLIFYRYAMGWNRQAPGKERELVAAISWSGGTTYYADSVKGRFTISRDNAKNTVYLQMNSLKPEDTAVYYCAATRLRTEYYWGQGTQVTVSS | high polyreactivity
QVQLVESGVGLVQAGGSLRLSCAASGRIFHLYAMGWYRQAPGKERELVAAITFSGGSTYYADSVKGRFTISRDNAMNTVYLQMNSLKPEDTAVYYFAKRSFYWFSSRLPFKYDYWGQGTQVTVSS | low polyreactivity
QVQLVESGVGLVQAGGSLRLSCAASGRIFPGNVMGWYIQAPGKERELVAAISRGGGSTYYADSVKGRFTISRDIAKNTVYAQMNSLKPEDTAVYYCNVLRYQSRFRYDYWGLGTQVTVSS | high polyreactivity
QVQLVESGVGLVQAGGSLRLSCAASGRIFSKYAMGWYRQAPGKERELVAAISANGGGSTYYADSVKGRFTISRDNAKNTFYLQMNSLKPEDSAVYYCAALAYSTTRGRLDYWGQGTQVTVSS | high polyreactivity
QVQLVESGVGLVQAGGSLRLSCAASGRIISRYAMGWYRQAPGKERELDAAISRRGGSTYYADSVKGRFTISRDNAKNTVYLQMNSLKPEDTAVYYCNADTGNRGYDYWGQGTQVTVSS | high polyreactivity
QVQLVESGVGLVQAGGSLRLSCAASGRLFQYYAMGWYRQAPGKERELVASISGTGGSTYYADSVKGRFTISRDNAKNTVYLQMNSLKPEDTAVYYCAVRVKLQYWREYNYWGQGTQVTVSS | high polyreactivity
QVQLVESGVGLVQAGGSLRLSCAASGRTFDLYAMGWYRQAPGKERELVAAITKGGGSTYYADSVKGRFTISRDNAKNTVYLQMNSLKPEDTAVYYCAARKYKRIYRISSGIGYYWGQGTQVTVSS | high polyreactivity
QVQLVESGVGLVQAGGSLRLSCAASGRTFWYYGMGWYRQAPGKERELVAAISRSGGRTYYADSVKARFTISRDNAKNTVYLQMNSLKPEDTAVYYCGASYRRTFDYWGQGTQVTVSS | high polyreactivity
QVQLVESGVGLVQAGGSLRLSCAASGRTIDHYAMGWYRQAPGKERELVAAISTTGGSTYYADSVKGRFTISRDNAKNTVYLQMNSLKPEDTAVYYCAARGLRTGGYWGQCTQVTVSS | high polyreactivity
QVQLVESGVGLVQAGGSLRLSCAASGRTIKANAMGWYRQAPGKERELVAAISRRGGRTYYADSVKGRFTISRDNAKNTVYLQMNSLKPEDTAVYYCAVRWYSYRQRYNYWGQGTQVTVSS | high polyreactivity
QVQLVESGVGLVQAGGSLRLSCAASGSIFASYAMGWYRQAPGKERELVAAISRSGTSTRYADSVKGRFTISRDNAKNTVYLQMNSLKPEDTAVYYCAARWYVFFRKYDYWGQGTQVTVSS | high polyreactivity

Sequence | polyreactivity (PSR sort gate)
QVQLVESGVGLVQAGGSLRLSCAASGSIFGYYVMGWYRQAPGKERELVAAISGSDSSTYYADSVKGRFTISRDNAKNTVYLQMNRLKPEDTAVYYCNADQRYYPVEFDYWGQGTQVTVSS | low polyreactivity
QVQLVESGVGLVQAGGSLRLSCAASGSIFLRNDMAWYRQAPGKERELVAGISSVGSTYYADSVKGRFTISRDNAKNTVYLQMNSLKPEDTAVYYCAAERWGNPTDYQFWRPYDYWGQGTQVTVSS | low polyreactivity
QVQLVESGVGLVQAGGSLRLSCAASGSIFQGYAMGWYRQAPGKERELVAGITSSGGRTRYADSLKGRFTISRDNAKNTVYLQMNSLKPEDTAVYSCAADYVRHIGYNYWGQGNQVTVSS | high polyreactivity
QVQLVESGVGLVQAGGSLRLSCAASGSIFVPNTMRWYRQAPGKERELVAAITGGGSTDYADSVKGRFTISRDNAKNTVYLQMNSLKPEDTAVYYCNKDYWRDVAQDVLDGYDYWGQGTQVTVSS | low polyreactivity
QVQLVESGVGLVQAGGSLRLSCAASGSIFYENAMGWYRQEPGKEREFVATIDLIGDRTFYADSVKVRFTISRDNAKNTVYLQMNSLKPEDTAVYYCAAERVGVFFRYDYWGQGTQVTVSS | low polyreactivity
QVQLVESGVGLVQAGGSLRLSCAASGSIFYRNAMVWYRQAHGKERELVAAISGTGGSTYYADSLKGRFTISRDNAKNTVYLQMNSLKPEDTAVYYCASGVTYRHDYWGQGTQVTVSS | high polyreactivity
QVQLVESGVGLVQAGGSLRLSCAASGSTFEVHSMGWYRQAPGKERELVATITRSGGSTYYADSVKGRFTISRDNGKNTVYLQMNSLKPEDTAVYYCNALWELKWGQGTQVTVSS | low polyreactivity
QVQLVESGVGLVQAGGSLRLSCAASGSTFKFYSMGWYRQAPGTERELVASITSSSGPTYFADSVKGRFTNSLDNAKNTVYLQMNSLKQEDTAVYYCAKRPIRYYHLLRGNYWGHGTQVTVSS | low polyreactivity
QVQLVESGVGLVQAGGSLRLSCAPSGSTLGYYVMGWYRQAPGKERELVAAITGGGSTDYADSVNGRFTISRDNAKNTVYLQMNSLKPEDTAVYYCAAERTRTGQLFWWGPIYDYWGLGTQVTVSS | low polyreactivity
QVQLVESGVGLVQAGGSLRLSCASSGITFPSYTMGWYRQAPGKERELVATIRNGGSTYYADSVKGRFTISRDNAKNTVYLQMNSLKPEDTAVYYCAAVPLWDYKFFYYLLYDYWGQGTQVTVSS | low polyreactivity
QVQLVESGVGLVQAGGSLRLSSAASGSIFLSYDMGWYRQAPGKERELVAAITQSGGSTYYADSVKGRFTISRDNAKNTVYLQMNSLKPEDTAVYYCAADYGYFPQETYPTYGYYYWGQGTQVTVSS | low polyreactivity
QVQLVESGVGLVQAGGSLRLTCAASGSIFGRKAMGWYRKATGKERELVAAIRTRGGSTYYADSVKGRFTISRDNAKNTLYLQMNSLKPEDTAVFFCAAPGGGKVVDYWGQGTHVTVSS | low polyreactivity
QVQLVESGVGLVQAGGSLRVSCAASGLTFAYYDMGWYRQAPGKERELVAAITWNGGSTYYADSVKGRFTISRDNAKNTVYLQMNSLKPEDTAVYYCAASWGYGYSGRFDYWGQGTQVSVSS | high polyreactivity
QVQLVESGVGLVQAGGSLSLSCAASGFTFHDYAMGWYSQAPGKERELVAAIDWSGGRTYYADSVKGRFTISRDNAKNTVYLQMNSLKPEDTAVYYCAAVRYSRLYWYRLDYGGQGTQVTVSS | low polyreactivity
QVQLVESGVGLVQAGGSLSLSCAASGIIFYWYAMGWYRQAPGKEREMVATITSTGGSTNYADSVKGRFTISRDNAKNSVYVQMNSLKPEYTAVYYCSTSGPQYYSRNFDYWGQGTQVTVSS | low polyreactivity
QVQLVESGVGLVQAGGSLSLSCAASGSTFPKYAMGWYRQAPGKERELVAAISGSGGSTYYADSVKGRFTISRDNAKNTVYLQMNSLKREDTAVYYCAVAWNVRGVGARQRYIYGYWGQGTQVTVSS | high polyreactivity
QVQLVESGVGLVQAGGSLSLSCAASGTFVLYAMGWYRQAPGKERELVAAISKTGRTYYADSVKGRFTISRDNAKNTVYLQMNSLKPEDTAVYYCAAQRFSKFGYWGQGTQVTVSS | high polyreactivity
QVQLVESGVGLVQARGSLRLSCAASGITFRRYAMGWYRQPPGKERELVAAITSSGGSTYYADSVKGRFTIPRDNAKNTVYLQMNSLKPEDTAVYYCAAAFFSQYYLYDYWGQGTQVTVSS | high polyreactivity
QVQLVESGVGLVQARGSLRLSCASSGSILIYNAMGWYRQAPGKVRELVAGISRRGDSTYYADSVKGRFTISRDNAKKTVYLQMNSLKPEDTAVYYCAALGKYIVAWSGDYWGQGTQVTVSS | low polyreactivity
QVQLVESGVGLVQAVGSLRLSCAASGSTFYYYAMGWYRQAPGKERELVAAISWSGAYTFYSDSVKGRFTISRDNAKNTVYLQMNSLKPEDTAVYYCAARYYGQPQYQPLYYWGQGTQVTVSS | high polyreactivity

From the nanobody polyreactivity screen of Harvey et al. (2022)
